Our source for the Kd values is article PMC12681905.

The target of test [1] is recombinant human LONP1 protein (human) (UniProt P36776). Kind of test: BLI; Octet R8, biotinylated LONP1 on streptavidin 2.0 biosensor; SOD2 at 0, 2.5, 5 and 10 uM for 90 s; steady-state fit. A general note: BLI is a label-free optical method that tracks binding on a fibre tip over time.
Test [2] shares this target. Kind of test: SPR; Biacore T200, LONP1 covalently coupled to a CM5 chip; SOD2 from 10 to 0.3125 uM in PBS/0.01 % Tween 20, 20 ul/min; association 240 s, dissociation 420 s.
Test [3] has the same target. Put plainly: MST; Monolith NT.115; 86 nM NHS-labelled LONP1, SOD2 from 2.85 to 22.8 uM, incubated 10 min; 80 % LED power, 80 % MST.

In general, Kd refers to the constant that tells how readily two partners part at equilibrium. For “recombinant human SOD2 protein (from UniProt P04179 25-222) (enzyme)”, the figures for the Kd in test [1], in test [2] and in test [3] were 13400 nM, 220 nM and 1560 nM, respectively.
